Laboratory results: patent US20100160617
pKd: −log10 of the molar value.

Assays:
[1] = biological target: HCV NS5B RNA-dependent RNA polymerase (Hepatitis C virus) (UniProt P26663); experiment: SPR; details: 2'-F on all C and U
[2] = biological target: HCV NS5B RNA-dependent RNA polymerase (Hepatitis C virus) (UniProt P26663); experiment: EMSA; details: 2'-F on all C and U; apparent Kd; 4% nondenaturing gel

HCV NS5B RNA-dependent RNA polymerase (Hepatitis C virus), sequence (P26663 2420-3010): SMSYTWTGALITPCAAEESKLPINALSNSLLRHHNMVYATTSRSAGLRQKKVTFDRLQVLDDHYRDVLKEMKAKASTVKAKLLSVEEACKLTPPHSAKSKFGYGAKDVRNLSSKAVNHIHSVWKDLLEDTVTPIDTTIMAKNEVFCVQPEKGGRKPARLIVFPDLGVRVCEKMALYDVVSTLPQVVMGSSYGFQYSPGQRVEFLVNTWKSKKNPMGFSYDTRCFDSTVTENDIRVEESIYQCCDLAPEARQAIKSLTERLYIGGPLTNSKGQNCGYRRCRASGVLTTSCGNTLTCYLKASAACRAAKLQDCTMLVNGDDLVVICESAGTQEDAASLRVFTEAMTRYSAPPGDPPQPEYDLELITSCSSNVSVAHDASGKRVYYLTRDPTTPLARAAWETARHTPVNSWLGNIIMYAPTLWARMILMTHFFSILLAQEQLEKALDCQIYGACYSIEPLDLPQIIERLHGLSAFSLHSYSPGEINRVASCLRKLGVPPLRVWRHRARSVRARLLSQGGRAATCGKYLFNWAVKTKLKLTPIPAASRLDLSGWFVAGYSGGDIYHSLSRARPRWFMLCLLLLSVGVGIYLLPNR

GUUGAACGAUUGGUAGUAGAAUAUCGUCAG [RNA aptamer #9-t2]
pKd ([1]; listing SEQ 4 lacks the 5' G printed in text): 8.59

GCUGGGCCUUGAACGAUUGGUAGUAGAAUAUCGUCAGUGAACGGC [RNA aptamer #9-t1]
pKd [1]: 8.08

GGGAGAGCGGAAGCGUGCUGGGCCUUGAACGAUUGGUAGUAGAAUAUCGUCAGUGAACGGCAGUCAUAACCCAGAGGUCGAUGGAUCCU [RNA aptamer #9]
pKd [2]: 7.74

AACGAUUGGUAGUAGAAUAUCGU [RNA aptamer #9-t3]
pKd ([1]; 5' end of the transcript may carry extra G from T7 primer): 7.39

GGGAGAGCGGAAGCGUGCUGGGCCGACAGGGUAGCUUACAGCUGCAUGAUCGCUAGAGGGCGAACAUAACCCAGAGGUCGAUGGAUCCCCCC [RNA aptamer #24]
pKd [2]: 8.30
